The test system of data set [1] is T1, VEGF-165 (VEGF-A) (Homo sapiens).
T1 sequence: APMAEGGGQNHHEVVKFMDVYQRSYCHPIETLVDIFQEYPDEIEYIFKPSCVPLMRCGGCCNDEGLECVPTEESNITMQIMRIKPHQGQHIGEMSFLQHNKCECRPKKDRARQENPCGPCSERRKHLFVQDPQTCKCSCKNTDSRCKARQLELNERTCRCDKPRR
Briefly: flow. As to conditions: 2'-F.

Data set [2] deals with T2, Angiopoietin-2 (Ang2) (Homo sapiens) (UniProt O15123).
T2 sequence: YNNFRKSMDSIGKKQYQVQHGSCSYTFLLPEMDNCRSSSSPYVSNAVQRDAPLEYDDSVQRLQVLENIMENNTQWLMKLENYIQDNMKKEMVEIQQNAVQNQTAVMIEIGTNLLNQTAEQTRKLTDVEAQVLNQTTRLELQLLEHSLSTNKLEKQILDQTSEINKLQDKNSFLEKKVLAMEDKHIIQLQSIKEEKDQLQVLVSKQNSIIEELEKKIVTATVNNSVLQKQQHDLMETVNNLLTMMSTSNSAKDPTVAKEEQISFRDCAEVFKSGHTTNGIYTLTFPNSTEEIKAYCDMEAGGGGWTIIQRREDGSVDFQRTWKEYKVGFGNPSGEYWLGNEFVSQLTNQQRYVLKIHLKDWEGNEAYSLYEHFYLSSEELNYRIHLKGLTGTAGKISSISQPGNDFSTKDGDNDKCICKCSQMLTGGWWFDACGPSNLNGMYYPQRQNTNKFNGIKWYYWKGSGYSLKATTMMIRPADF
Briefly: flow. The settings on record: 2'-F.

Setting [3] is: OOOO linker replacing UUUUA after UGCAUGCA
Setting [4] is: internal hexaethylene glycol (H) linker in Ang2 part.
The mark [5] stands for this setting: OO linker replacing UUUUA after UGCAUGCA
The mark [6] stands for this setting: hexaethylene glycol (H) linker replacing UUUUA after UGCAUGCA

Six sequences from patent US20230095004 can be followed below.

A word on the Kd: it is the constant that tells how readily two partners part at equilibrium. Take “UGCAUGCACCAGUGAGUCGGAUCUCCGCAUAGAUAAGCCAACAAACGUACAUUCUCUGUUAGUAUUUUCUGCG [AMSB107.27]”: the Kd in data set [1] (setting [3]) was determined as 0.059 nM; in data set [2] (setting [3]) it was 0.079 nM.
“UGCAUGCAUUUUACCAGUGAGUCGGAUCUCCGCAUAGAUAAGCCAACAAAUUCUCUGUUAGUAUUUUCUGCG [AMSB107.24]”: the equilibrium dissociation constant (Kd) in data set [1] (setting [4]) turned out to be 0.209 nM; in data set [2] (setting [4]), 1.78 nM.
Take “UGCAUGCAUUUUACCAGUGAGUCGGAUCUCCGCAUAGAUAAGCCAACAAACGUACAUUCUCUGUUAGUAUUUUCUGCG [AMSB107.23]”: the equilibrium dissociation constant (Kd) in data set [1] (5' hexaethylene glycol (H)) was 0.049 nM; in data set [2] (5' hexaethylene glycol (H)) it was 0.084 nM.
As for “UGCAUGCAUUUUACCAGUGAGUCGGAUCUCCGCAUAGAUAAGCCAACAAACGUUCUCUGUUAGUAUUUUCUGCG [AMSB107.25]”, the Kd was 0.224 nM in data set [1] (setting [4]) and 1.41 nM in data set [2] (setting [4]).
Consider “UGCAUGCACCAGUGAGUCGGAUCUCCGCAUAGAUAAGCCAACAAACGUACAUUCUCUGUUAGUAUUUUCUGCG [AMSB107.26]”, for which the Kd in data set [1] (setting [5]) worked out at 0.056 nM; in data set [2] (setting [5]) it was 0.076 nM.
With “UGCAUGCACCAGUGAGUCGGAUCUCCGCAUAGAUAAGCCAACAAACGUACAUUCUCUGUUAGUAUUUUCUGCG [AMSB107.22]”, the equilibrium dissociation constant (Kd) turned out to be 0.055 nM in data set [1] (setting [6]) and 0.098 nM in data set [2] (setting [6]).
